Measured values published in patent US20180230231A1 (Memorial Sloan Kettering, published 2018).
Substitutions are numbered along the chain they refer to. Each block holds one molecule with its values, some of them ahead of it. Ends that are not written are not given here.

Assays:
[1] = molecular target: mouse MUC16 on ID8 and BR5-FVB1 cells (mouse); assay: FACS on ID8 (mouse) cells, second antibody alone
[2] = molecular target: mouse MUC16 on ID8 and BR5-FVB1 cells (mouse); assay: FACS on BR5-FVB1 (mouse) cells, second antibody alone
[3] = molecular target: phrGFP-ΔMUC16^c114 on SKOV3 cells (human); assay: FACS dot plot, surface staining, goat anti-mouse PE (FL2) against GFP (FL1); secondary antibody alone gives 0.55 in this quadrant
[4] = molecular target: human MUC16 on OVCAR3 cells (human); assay: FACS dot plot, surface staining, goat anti-mouse PE (FL2) against GFP (FL1); secondary antibody alone gives 8.06 in this quadrant
[5] = molecular target: phrGFP-ΔMUC16^c334 on SKOV3 cells (human); assay: FACS dot plot, surface staining, goat anti-mouse PE (FL2) against GFP (FL1); secondary antibody alone gives 4.11 in this quadrant
[6] = molecular target: phrGFP-ΔMUC16^c114 on SKOV3 cells (human); assay: FACS dot plot, surface staining, goat anti-mouse PE (FL2) against GFP (FL1); secondary antibody alone gives about 0.9 in this quadrant
[7] = molecular target: phrGFP-ΔMUC16^c334 on SKOV3 cells (human); assay: FACS dot plot, surface staining, goat anti-mouse PE (FL2) against GFP (FL1); secondary antibody alone gives 0.69 in this quadrant
[8] = molecular target: phrGFP-ΔMUC16^c334 on SKOV3 cells (human); assay: FACS dot plot, surface staining, goat anti-mouse PE (FL2) against GFP (FL1); secondary antibody alone gives 0.69 in this quadrant (FIG. 7A)
[9] = molecular target: phrGFP-ΔMUC16^c114 on SKOV3 cells (human); assay: FACS dot plot, surface staining, goat anti-mouse PE (FL2) against GFP (FL1); secondary antibody alone gives 0.55 in this quadrant (FIG. 7A)
[10] = molecular target: phrGFP-ΔMUC16^c114 on SKOV3 cells (human); assay: FACS dot plot, surface staining, goat anti-mouse PE (FL2) against GFP (FL1); secondary antibody alone gives about 0.9 in this quadrant (FIG. 7A)
[11] = molecular target: human MUC16 on OVCAR3 cells (human); assay: FACS dot plot, surface staining, goat anti-mouse PE (FL2) against GFP (FL1); secondary antibody alone gives 8.06 in this quadrant (FIG. 7A)
[12] = molecular target: phrGFP-ΔMUC16^c334 on SKOV3 cells (human); assay: FACS dot plot, surface staining, goat anti-mouse PE (FL2) against GFP (FL1); secondary antibody alone gives 4.11 in this quadrant (FIG. 7A)
[13] = molecular target: human MUC16 on OVCAR3 cells (human); assay: FACS dot plot, surface staining, goat anti-mouse IgG PE (FL2) against GFP (FL1); secondary antibody alone gives 8.06 in this quadrant (FIG. 7A)
[14] = molecular target: phrGFP-ΔMUC16^c114 on SKOV3 cells (human); assay: FACS dot plot, surface staining, goat anti-mouse IgG PE (FL2) against GFP (FL1); secondary antibody alone gives 0.55 in this quadrant (FIG. 7A)
[15] = molecular target: phrGFP-ΔMUC16^c334 on SKOV3 cells (human); assay: FACS dot plot, surface staining, goat anti-mouse IgG PE (FL2) against GFP (FL1); secondary antibody alone gives 0.69 in this quadrant (FIG. 7A)
[16] = molecular target: phrGFP-ΔMUC16^c334 on SKOV3 cells (human); assay: FACS dot plot, surface staining, goat anti-mouse IgG PE (FL2) against GFP (FL1); secondary antibody alone gives 4.11 in this quadrant (FIG. 7A)
[17] = molecular target: phrGFP-ΔMUC16^c114 on SKOV3 cells (human); assay: FACS dot plot, surface staining, goat anti-mouse IgG PE (FL2) against GFP (FL1); secondary antibody alone gives about 0.9 in this quadrant (FIG. 7A)
[18] = molecular target: T1, Mouse MUC16-CD Peptide 1 (mouse, also: N-terminal Cys added for KLH conjugation of immunogen); assay: ELISA of clone supernatant on individual mouse MUC16 peptides
T1 construct: A cysteine was added at the N terminus for KLH conjugation of the immunogen
T1 peptide: TLDRKSVFVDGYSQNRDD

[19] = molecular target: T2, MUC16 Polypeptide 2 (human, not fully specified); assay: ELISA on synthetic peptide, hybridoma sup 1:1
T2 construct: Synthetic peptide
T2 peptide: CTLDRSSVLVDGYSPNRNE

Chain of phrGFP-ΔMUC16^c114 on SKOV3 cells (human) (chain, as listed by the source mutant limits assumed): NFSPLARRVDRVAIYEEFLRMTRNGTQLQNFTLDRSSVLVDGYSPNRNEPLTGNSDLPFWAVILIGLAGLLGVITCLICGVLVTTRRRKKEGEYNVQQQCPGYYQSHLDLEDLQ
Chain of mouse MUC16 on ID8 and BR5-FVB1 cells (mouse) (chain, as listed by the source limits assumed): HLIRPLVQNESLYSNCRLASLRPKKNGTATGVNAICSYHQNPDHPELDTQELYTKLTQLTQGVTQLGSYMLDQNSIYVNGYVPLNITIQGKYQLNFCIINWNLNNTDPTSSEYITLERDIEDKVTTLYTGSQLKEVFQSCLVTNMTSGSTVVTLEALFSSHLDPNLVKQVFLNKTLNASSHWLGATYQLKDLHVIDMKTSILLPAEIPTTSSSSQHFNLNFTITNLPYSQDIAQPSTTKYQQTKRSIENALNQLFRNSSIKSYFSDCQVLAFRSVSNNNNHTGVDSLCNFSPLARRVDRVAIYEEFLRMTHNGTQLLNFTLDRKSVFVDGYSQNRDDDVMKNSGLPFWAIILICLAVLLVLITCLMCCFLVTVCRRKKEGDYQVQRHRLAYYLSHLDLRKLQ

% of cells in the PE-positive gate [1]: 4.53%
% of cells in the PE-positive gate [2]: 0.99%
Molecule: G anti Mouse IgG2b-PE (antibody)

% of events in the upper left quadrant (PE-positive, GFP-negative) [3]: 2.39%
% of events in the upper left quadrant (PE-positive, GFP-negative) [4]: 97%
% of events in the upper right quadrant (PE-positive, GFP-positive) [5]: 25.4%
% of events in the upper right quadrant (PE-positive, GFP-positive) [6]: 1.09%
% of events in the upper left quadrant (PE-positive, GFP-negative) [7]: 1.1%
Molecule: OC125 (antibody)

% of events in the upper left quadrant (PE-positive, GFP-negative) [8]: 1.35%
% of events in the upper left quadrant (PE-positive, GFP-negative) [9]: 2.55%
% of events in the upper right quadrant (PE-positive, GFP-positive) [10]: 1.24%
% of events in the upper left quadrant (PE-positive, GFP-negative) [11]: 95.3%
% of events in the upper right quadrant (PE-positive, GFP-positive) [12]: 33.5%
Molecule: M11 (antibody)

% of events in the upper left quadrant (PE-positive, GFP-negative) [13]: 94.9%
% of events in the upper left quadrant (PE-positive, GFP-negative) [14]: 0.69%
% of events in the upper left quadrant (PE-positive, GFP-negative) [15]: 0.91%
% of events in the upper right quadrant (PE-positive, GFP-positive) [16]: 6.59%
% of events in the upper right quadrant (PE-positive, GFP-positive) [17]: 1.02%
Molecule: VK8 (antibody)

binding result [18]: binds
B1: 12B10-3G10 (antibody, V domains shown)
VH: EVKLEESGGGLVQPKGSLKLSCAASGFTFNTYAVHWVRQAPGKGMEWVARIRSKSGNYATYYADSVKDRFTISRNDSQSMLYLQMNNLKTEDTAIYYCVRAGNNGAFPYWGQGTTVTVSS
VL: DIELTQSPSSLSASLGGRVTITCKASQDIKKYIAWYQHKPGKTPRLLIHFTSTLQTGIPSRFSGRGSGRDYSFSISNLESEDIATYYCLQYDSLYTFGGGTKLEIKR
notes: Mouse mAb against mouse MUC16, IgG 2b; also called mouse 12B10 mAb; 12B10-3F7

binding result [19]: binds
B2: 4H11.2.5 (antibody, V domains shown)
VH: VKLQESGGGFVKPGGSLKVSCAASGFTFSSYAMSWVRLSPEMRLEWVATISSAGGYIFYSDSVQGRFTISRDNAKNTLHLQMGSLRSGDTAMYYCARQGFGNYGDYYAMDYWGQGTTVTVSS
VL: DIELTQSPSSLAVSAGEKVTMSCKSSQSLLNSRTRKNQLAWYQQKPGQSPELLIYWASTRQSGVPDRFTGSGSGTDFTLTISSVQAEDLAVYYCQQSYNLLTFGPGTKLEVKR
notes: Mouse monoclonal, IgG2b (parent supernatant IgG2b, IgM); also called 4H11 MAb

binding result [19]: binds
B3: 4A5.37 (antibody, IgG1, V domains shown)
VH: B2 VH with Q4E, V19I, S29R, S30N
VL: B2 VL with P46T, V111I
notes: Mouse monoclonal, IgG1
